Laboratory results taken from the supplement of paper PMC9170038.

System: MS2 coat protein
Assay: apparent KD of MS2 coat protein; designed switch direction (-1 OFF switch, 1 ON switch): -1; higher = weaker reporter binding
Summary of the method: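 On Illumina chips, designed RNA switches with common flanks were made by stalled E. coli RNA polymerase. Titrations with SNAP-549-labelled MS2 coat protein, doubling from 0.7 or 1.5 nM to 3 µM, were done with no input, with 200 uM small-molecule ligand, or with an oligonucleotide input. Apparent KD is the median per design over clusters, from curve fits of normalised cluster fluorescence.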

[1] = Eterna round: R95, input ligand: microRNA oligo, concentration not stated
[2] = input ligand: microRNA oligo, concentration not stated
[3] = Eterna round: R95, input ligand: FMN 200 uM
[4] = Eterna round: R95, input ligand: none

Sequence	apparent KD of MS2 coat protein (input ligand: FMN 200 uM) [nM]	apparent KD of MS2 coat protein [2] [nM]	apparent KD of MS2 coat protein (input ligand: none) [nM]	other results
UAUAAUACAUAGGAUAUCGAAUAAAUCAUUUAACGAGAAGGAUGAACAUGAGGAUCACCCAUGUGGUAUCAUGG [Mat - Exclusion 6 - JL Mod - D12] (puzzle: Exclusion 6)	–	–	–	apparent KD of MS2 coat protein [1]: 180 nM
UAUACAAAAGAUACCUCGUGACAUGAGGAUCACCCAUGUUUUGAGGAUAUCAGACUUCAUGGUCAUGAGAAGGCAGAGCAUGAU [Tireala] (Eterna round: R96, puzzle: Exclusion NG 3)	20.4	10.1	13.6	–
UAUAUAUAGUAAGGAUAUGUAAUUAUUUUAUGAACAGAAGGUACUGACAUGAGGAUCACCCAUGUUUUAGUGUGGGCAUGUAGA [JMF's solution 48] (Eterna round: R96, puzzle: Exclusion NG 1)	–	61.3	–	–
UAUAUAUAGUAAGGAUAUGUAAUUAUUUUGUAAACAGAAGGUACUGACAUGAGGAUCACCCAUGUUUUAGUGUGGGCAUGUAGA [JMF's solution 44] (Eterna round: R96, puzzle: Exclusion NG 1)	–	84.5	–	–
UAUAUAUAGUAAGGAUAUGUAUAUAUUCUAUAAACAGAAGGUACUGACAUGAGGAUCACCCAUGUUUUAGUGUGGGCAUGUAGA [JMF's solution 62] (Eterna round: R96, puzzle: Exclusion NG 1)	–	27.4	–	–
UAUAUAUAGUAAGGAUAUGUAUUAAUUUUAUUAACAGAAGGUACUGACAUGAGGAUCACCCAUGUUUUAGUGUGGGCAUGUAGA [JMF's solution 90] (Eterna round: R96, puzzle: Exclusion NG 1)	–	69.4	–	–
UAUAUAUAGUAAGGAUAUGUAUUUAUUCUAUAAACAGAAGGUACUGACAUGAGGAUCACCCAUGUUUUAGUGUGGGCAUGUAGA [JMF's solution 18] (Eterna round: R96, puzzle: Exclusion NG 1)	–	33	–	–
UAUAUAUAGUAAGGAUAUGUAUUUAUUUUAUAGACAGAAGGUACUGACAUGAGGAUCACCCAUGUUUUAGUGUGGGCAUGUAGA [JMF's solution 27] (Eterna round: R96, puzzle: Exclusion NG 1)	122	78.5	94.4	–
UAUAUAUAGUAAGGAUAUGUAUUUGUUUUAUAAACAGAAGGUACUGACAUGAGGAUCACCCAUGUUUUAGUGUGGGCAUGUAGA [JMF's solution 11] (Eterna round: R96, puzzle: Exclusion NG 1)	–	32.8	–	–
UAUAUGUGAGGAUAUCAGGUGUGCUAGCGUACUGGUACAUCUGAGAAGGCACAUGAGGAUCACCCAUGUAUCUU [JL-ex4-3.25 Brourd mod] (puzzle: Exclusion 4)	–	–	–	apparent KD of MS2 coat protein [1]: 25.5 nM
UAUGAAGUAGGAUAUACAUGAGGAUCACCCAUGUCCUUACUGAGACCGGGCACGGCUCGUAGAAGGGCUUUCGA [Eternabot (L2) Solution 50] (Eterna round: R97, puzzle: Exclusion 3)	36.7	–	40.7	–
UAUGGUUAAGUCAGGAUAUACAAACAGAAAUCUGAGUAGAAGGGACAUGAGGAUCACCCAUGUAUGGUAGUGUU [Ex4 #56] (Eterna round: R97, puzzle: Brourd's mod of Exclusion 4)	48.6	–	44.6	–
UAUGUCUUUGUGAGGAUAUACUUUGUUUGGUCGUAGUAGAAGGCACAUGAGGAUCACCCAUGUAGAUUUUUGGU [JR_BME4_Sub011] (puzzle: Brourd's mod of Exclusion 4)	–	–	–	apparent KD of MS2 coat protein [1]: 20.1 nM
UAUUAACAAGCGAGAUCCCACAUGAGGAUCACCCAUGUGCUCGUCUUAUAAGGUACUGUGACGAAAGUCACGGUACC [Sensor 3, v1 - 91 v2] (Eterna round: R97, puzzle: Sensor, turn-off variant 1)	17	–	15.7	–
UAUUAACAUGUAGGAUAUCUGCACGUUUAGUGCAGAGAAGGACAUGAGGAUCACCCAUGUAGAUCAUAAUAAUUUAAUUUAAUU [ENG1/6-D2] (Eterna round: R96, puzzle: Exclusion NG 1)	541	141	117	–
UAUUAAUUAAUUAAUUAAUACAUGAGGAUCACCCAUGUAAUUUAAGAUCCUUAUACAAGCUUUGAUCUCGUAAUUAA [Stov1/4-A2] (Eterna round: R97, puzzle: Sensor, turn-off variant 1)	861	–	696	–
UAUUAGCAAGUGAGAUCCGACAUGAGGAUCACCCAUGUGCUCGUCUUAUAAGCUAAUAUAAGAAAACUUAUAUUAGC [Elimod 7 - Jieux - Sensor, turn-off variant 1] (Eterna round: R97, puzzle: Sensor, turn-off variant 1)	242	–	284	–
UAUUAGGGAGGAUAUCGCAGUUGCAACAUGAGGAUCACCCAUGUGAACAGCCUCACCAAUCGAGAAGGCCUGAGUG [Eternabot (L2) Solution 59] (Eterna round: R97, puzzle: Exclusion 5)	71	–	75.5	–

Sequence	apparent KD of MS2 coat protein (input ligand: FMN 200 uM) [nM]	apparent KD of MS2 coat protein [2] [nM]	apparent KD of MS2 coat protein (input ligand: none) [nM]	other results
UAUUAGUAAGGAUAUGAGUCGUAGAACAAUAGUACUACGUCUCAGAAGGUACAUGAGGAUCACCCAUGUUCAUU [Mod of Fisker 2 - Jieux - Exclusion 4] (Eterna round: R97, puzzle: Exclusion 4)	27.4	–	19	–
UAUUAGUGAGGAUAUGAGUCGUAGAACAAUAGUACUACGUCUCAGAAGGUACAUGAGGAUCACCCAUGUUCCUC [Fiskers Ex 4 Super Stable 44 mod 32] (puzzle: Exclusion 4)	–	–	–	apparent KD of MS2 coat protein [1]: 18.9 nM
UAUUAGUGAGGAUAUGAGUCGUAGAACAAUAGUACUACGUCUCAGAAGGUACAUGAGGAUCACCCAUGUUCCUU [Fiskers Ex 4 Super Stable 44 mod 34] (puzzle: Exclusion 4)	–	–	–	apparent KD of MS2 coat protein [1]: 12 nM
UAUUCGCAAGCGAGAUCCCACAUGAGGAUCACCCAUGUGCUCGUCUUAUAAGGUACUGUGACGAGAGUCACGGUACC [Mat - Sensor, turn-off var - Eli Mod - D82] (Eterna round: R97, puzzle: Sensor, turn-off variant 1)	16.8	–	14.7	–
UAUUUAAUUAACAAGCUUUACAUGAGGAUCACCCAUGUGAUCAUGCUCGUCUUAGGUACAGGCUUCGGCCUGUACCA [Stov1/6-B2] (Eterna round: R97, puzzle: Sensor, turn-off variant 1)	51.8	–	55.9	–
UAUUUCAUCUAUGGGAGUAACAUGAGGAUCACCCAUGUAUGUCUUGUUUUUUGUUCGUCUAAGACUUUCUGAUCAGU [JR_SV3TOV1_Sub031] (Eterna round: R96, puzzle: Sensor v3, turn-off variant 1)	39.4	43.1	35.6	–
UAUUUCAUCUAUGGGAGUAACAUGAGGAUCACCCAUGUAUGUCUUGUUUUUUGUUCGUCUAAGACUUUCUGAUCAGU [JR_SV3TOV1_Sub031] (puzzle: Sensor v3, turn-off variant 1)	–	–	–	apparent KD of MS2 coat protein [3]: 34.2 nM; apparent KD of MS2 coat protein [1]: 45.5 nM; apparent KD of MS2 coat protein [4]: 35.4 nM
UCAAAGUCAGGAUAUACAUGAGGAUCACCCAUGUAAAAUUUUAAUUUAAUUUGAAGGUGUAGAAGGGACAAACU [Ex3 #34] (Eterna round: R97, puzzle: Exclusion 3)	39.2	–	38.8	–
UCAAGUUUUUAGAUUCUUAACAUGAGGAUCACCCAUGUGCUCGUCUUGUUGUACUAUCACUCGAAAGUGAUAGUACA (Eterna round: R97, puzzle: Sensor, turn-off variant 1)	43.5	–	46.4	–
UCACGGGACUAAGGAUAUACAUGAUCCAUUUUUGUAGAAGGUAGAAUGUUAGAUCAUAAACUAAACAUGAGGAUCACCCAUGUU [JR_ExcNG1_Sub089] (Eterna round: R96, puzzle: Exclusion NG 1)	–	20.2	–	–
UCACGGGAUUGAGGAUAUAUAUUAAUUUUUACAAUAGAAGGCAAAUUGUUAGUUUUUUCACUAUACAUGAGGAUCACCCAUGUU [JR_ExcBG1_Sub079] (Eterna round: R96, puzzle: Exclusion NG 1)	–	18.9	–	–
UCACGGGAUUGAGGAUAUAUAUUAAUUUUUACAAUAGAAGGCAAAUUGUUAGUUUUUUCACUUUACAUGAGGAUCACCCAUGUU [JR_ExcBG1_Sub080] (Eterna round: R96, puzzle: Exclusion NG 1)	–	19.6	–	–
UCAUGUUAGCAGGAUAUGCUAUUUAUCUUUUAUGCAGAAGGGCUUACAUGAGGAUCACCCAUGUAUUAAGUCUU [JR_E6_Sub075] (puzzle: Exclusion 6)	–	–	–	apparent KD of MS2 coat protein [1]: 18 nM
UCAUGUUUAGAGGAUAUGAUUACUUUGGAGUAAUCAGAAGGCUAGACAUGAGGAUCACCCAUGUCAUAACAUGA [Exclusion 6 - B - 15:c] (puzzle: Exclusion 6)	–	–	–	apparent KD of MS2 coat protein [3]: 75.5 nM; apparent KD of MS2 coat protein [1]: 71.5 nM; apparent KD of MS2 coat protein [4]: 61.3 nM
UCCAACCCUGUGAGGAUAUCGUCCAUUUUUUGUUACGAGAAGGCACAUGAGGAUCACCCAUGUUUUUUAUUUUU [JR_BMOE4_Sub079] (puzzle: Brourd's mod of Exclusion 4)	–	–	–	apparent KD of MS2 coat protein [1]: 23.8 nM
UCCUAACAUGAGGAUCACCCAUGUCAGGAUAUCUACGUCAGAACCACGUAUGUAGGCGAGAGAAGGGACAGAGG [EX1 C.14] (Eterna round: R97, puzzle: Exclusion 1)	21	–	17.4	–
UCCUCACAUGAGGAUCACCCAUGUGAGGAUAUGGGCCCGGGCCCGAAAGGGCCCGGGCCCAGAAGGCACUGGGU [MoB_2] (Eterna round: R97, puzzle: Exclusion 1)	25	–	56.1	–
UCCUGACAUGAGGAUCACCCAUGUGAGGAUAUGUGGAUCGAGACAACUCUCGGUCCGUGCAGAAGGCACAGGGC [EX1 A.20] (Eterna round: R97, puzzle: Exclusion 1)	28.1	–	20.3	–
